B1: Azoarcus group I ribozyme (parent)
chain: GUGCCUUGCGCCGGGAAACCACGCAAGGGAUGGUGUCAAAUUCGGCGAAACCUAAGCGCCCGCCCGGGCGUAUGGCAACGCCGAGCCAAGCUUCGGCGCCUGCGCCGAUGAAGGUGUAGAGACUAGACGGCACCCACCUAAGGCAAACGCUAUGGUGAAGGCAUAGUCCAGGGAGUGGCGAAAGUCACACAAACCGG

Variants of: B1
Experiment: reverse-splicing fitness (ratio to wild type); higher = more active; in vitro selection; Mg2+ level not given
Procedure, shortened: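 An in vitro group I ribozyme library with randomized positions was T7-transcribed and gel-purified. In triplicate, 10 pmol RNA in EPPS pH 7.5 was reacted with 50 pmoles of a 30-nt RNA substrate for 1 h at 37 °C across several added MgCl2 levels (1–48 mM), then stopped with EDTA. Products were reverse transcribed from a substrate-complementary primer, PCR-amplified and sequenced (HiSeq 4000). Fitness is a variant's read proportion after selection over that before, normalised to wild type.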
Work on A111C A145G C150G C169G U176C yielded a reverse-splicing fitness of 0.0102.
In the case of A111C A145G C150G C169G U176A, the reverse-splicing fitness is reported as 0.00954.
In the case of A111C A145G C150G C169G U176G, the reverse-splicing fitness is reported as 0.00555.
For A111C A120U C169A, the reverse-splicing fitness was 0.00479.
For A111C A120U C169G, the reverse-splicing fitness was 0.0632.
Work on A111C A120U C169U yielded a reverse-splicing fitness of 0.0792.
In the case of A111C A120U A145U C150A U176G, the reverse-splicing fitness is reported as 0.0123.
Variant A111C A120U A145U C150A U176C has a reverse-splicing fitness of 0.0354.
With A111C A120U A145U C150A U176A the reverse-splicing fitness was 0.0343.
A111C A145G C169U showed a reverse-splicing fitness of 0.126.
A111C A145G C169A gave a reverse-splicing fitness of 0.0355.
With A111C A145G C169G the reverse-splicing fitness was 0.0737.
A111C A120U C150A C169U gave a reverse-splicing fitness of 0.00953.
In the case of A111C A120U C150A C169G, the reverse-splicing fitness is reported as 0.00691.
A111C A120U C150A C169A gave a reverse-splicing fitness of 0.00557.
Variant A111C A145U has a reverse-splicing fitness of 0.839.
For A111C A145C, the reverse-splicing fitness was 0.768.
Variant A111C A145G has a reverse-splicing fitness of 0.83.
Variant A111C A120U C150U C169A U176C has a reverse-splicing fitness of 0.00309.
A111C A120U C150U C169A U176A gave a reverse-splicing fitness of 0.00394.
A111C A120U C150U C169A U176G showed a reverse-splicing fitness of 0.00204.
For A111C A145G C150A C169A, the reverse-splicing fitness was 0.0128.
A111C A145G C150A C169G gave a reverse-splicing fitness of 0.0154.
With A111C A145G C150A C169U the reverse-splicing fitness was 0.0232.
A111C A145C C169A showed a reverse-splicing fitness of 0.0285.
A111C A145C C169U showed a reverse-splicing fitness of 0.118.
Variant A111C A145C C169G has a reverse-splicing fitness of 0.0652.
Work on A111C C150A C169A U176C yielded a reverse-splicing fitness of 0.0227.
Variant A111C C150A C169A U176A has a reverse-splicing fitness of 0.0182.
For A111C C150A C169A U176G, the reverse-splicing fitness was 0.00777.
For A111C A145G C169A U176C, the reverse-splicing fitness was 0.0307.
In the case of A111C A145G C169A U176G, the reverse-splicing fitness is reported as 0.0065.
Variant A111C A145G C169A U176A has a reverse-splicing fitness of 0.0288.
In the case of A111C A120U A145U C150U C169G U176C, the reverse-splicing fitness is reported as 0.00885.
A111C A120U A145U C150U C169G U176A showed a reverse-splicing fitness of 0.00509.
A111C A120U A145U C150U C169G U176G gave a reverse-splicing fitness of 0.00261.
For A111C A120U C169U U176C, the reverse-splicing fitness was 0.0214.
Variant A111C A120U C169U U176G has a reverse-splicing fitness of 0.00263.
For A111C A120U C169U U176A, the reverse-splicing fitness was 0.0143.
A111C A145U C150G showed a reverse-splicing fitness of 0.219.
With A111C A145U C150U the reverse-splicing fitness was 0.731.
For A111C A145U C150A, the reverse-splicing fitness was 0.286.
Variant A111C C150A U176C has a reverse-splicing fitness of 0.147.
A111C C150A U176A showed a reverse-splicing fitness of 0.12.
For A111C C150A U176G, the reverse-splicing fitness was 0.0531.
In the case of A111C A145U C150A C169G U176A, the reverse-splicing fitness is reported as 0.0133.
For A111C A145U C150A C169G U176C, the reverse-splicing fitness was 0.0203.
Variant A111C A145U C150A C169G U176G has a reverse-splicing fitness of 0.00765.
In the case of A111C A145U C150G C169A U176C, the reverse-splicing fitness is reported as 0.011.
With A111C A145U C150G C169A U176A the reverse-splicing fitness was 0.00872.
A111C A145U C150G C169A U176G gave a reverse-splicing fitness of 0.007.
A111C A145C C150G showed a reverse-splicing fitness of 0.246.
Work on A111C A145C C150A yielded a reverse-splicing fitness of 0.15.
For A111C A145C C150U, the reverse-splicing fitness was 0.554.
For A111C A120U U176A, the reverse-splicing fitness was 0.22.
In the case of A111C A120U U176C, the reverse-splicing fitness is reported as 0.257.
With A111C A120U U176G the reverse-splicing fitness was 0.0937.
A111C A145U C169G U176G gave a reverse-splicing fitness of 0.00719.
Variant A111C A145U C169G U176C has a reverse-splicing fitness of 0.0264.
In the case of A111C A145U C169G U176A, the reverse-splicing fitness is reported as 0.0179.
Work on A111C A120U C150U C169G U176C yielded a reverse-splicing fitness of 0.00812.
A111C A120U C150U C169G U176G showed a reverse-splicing fitness of 0.00251.
In the case of A111C A120U C150U C169G U176A, the reverse-splicing fitness is reported as 0.00676.
A111C A145G C150G U176G gave a reverse-splicing fitness of 0.0194.
A111C A145G C150G U176A gave a reverse-splicing fitness of 0.0686.
Variant A111C A145G C150G U176C has a reverse-splicing fitness of 0.13.
With A111C A145U C150G C169G U176A the reverse-splicing fitness was 0.00777.
Variant A111C A145U C150G C169G U176C has a reverse-splicing fitness of 0.00594.
In the case of A111C A145U C150G C169G U176G, the reverse-splicing fitness is reported as 0.0067.
In the case of A111C C150G C169A U176A, the reverse-splicing fitness is reported as 0.00958.
Variant A111C C150G C169A U176C has a reverse-splicing fitness of 0.0107.
With A111C C150G C169A U176G the reverse-splicing fitness was 0.00532.
A111C A145G C150A C169G U176A showed a reverse-splicing fitness of 0.0153.
A111C A145G C150A C169G U176C showed a reverse-splicing fitness of 0.0293.
A111C A145G C150A C169G U176G gave a reverse-splicing fitness of 0.00728.
Variant A111C A120U A145U C169G U176G has a reverse-splicing fitness of 0.00209.
With A111C A120U A145U C169G U176A the reverse-splicing fitness was 0.00434.
A111C A120U A145U C169G U176C gave a reverse-splicing fitness of 0.00935.
For A111C A120U C150A C169U U176A, the reverse-splicing fitness was 0.00902.
Variant A111C A120U C150A C169U U176G has a reverse-splicing fitness of 0.00274.
With A111C A120U C150A C169U U176C the reverse-splicing fitness was 0.0062.
Variant A111C A145C C150U C169U U176G has a reverse-splicing fitness of 0.00818.
For A111C A145C C150U C169U U176C, the reverse-splicing fitness was 0.0139.
With A111C A145C C150U C169U U176A the reverse-splicing fitness was 0.0174.
